Target: gelatin substrate

B1: Dif153 (CD2830, hypothetical protein, zinc metallopeptidase), recombinant (protein)
chain: DSTTIQQNKDTLSQIVVFPTGNYDKNEANAMVNRLANIDGKYLNALKQNNLKIKLLSGKLTDEKEYAYLKGVVPKGWEGTGKTWDDVPGLGGSTVALRIGFSNKGKGHDAINLELHETAHAIDHIVLNDISKSAQFKQIFAKEGRSLGNVNYLGVYPEEFFAESFAYYYLNQDTNSKLKSACPQTYSFLQNLAK
Question: B1 was tested. Which “fluorimetric analysis of gelatin cleavage” value did it give?
Answer: the recombinant protein has a weak gelatinase/collagenase activity in the presence of zinc, but not in the presence of nickel and copper or in the apo form
